Earlier results in PMC10648573.
Where two headings read alike, the source gives them in different places.

Tests used:
[1] = molecular target: NGALR 1-105 (Homo sapiens) (UniProt Q8WUG5)
24p3R (Homo sapiens) = 24p3R (Homo sapiens) (UniProt Q8WUG5)
megalin (Homo sapiens) = megalin (Homo sapiens) (UniProt P98164)
[2] = molecular target: NGALR 1-105 (Homo sapiens) (UniProt Q8WUG5); remark: listed apart in the source

UniProt P98164, sequence (P98164 26-4423): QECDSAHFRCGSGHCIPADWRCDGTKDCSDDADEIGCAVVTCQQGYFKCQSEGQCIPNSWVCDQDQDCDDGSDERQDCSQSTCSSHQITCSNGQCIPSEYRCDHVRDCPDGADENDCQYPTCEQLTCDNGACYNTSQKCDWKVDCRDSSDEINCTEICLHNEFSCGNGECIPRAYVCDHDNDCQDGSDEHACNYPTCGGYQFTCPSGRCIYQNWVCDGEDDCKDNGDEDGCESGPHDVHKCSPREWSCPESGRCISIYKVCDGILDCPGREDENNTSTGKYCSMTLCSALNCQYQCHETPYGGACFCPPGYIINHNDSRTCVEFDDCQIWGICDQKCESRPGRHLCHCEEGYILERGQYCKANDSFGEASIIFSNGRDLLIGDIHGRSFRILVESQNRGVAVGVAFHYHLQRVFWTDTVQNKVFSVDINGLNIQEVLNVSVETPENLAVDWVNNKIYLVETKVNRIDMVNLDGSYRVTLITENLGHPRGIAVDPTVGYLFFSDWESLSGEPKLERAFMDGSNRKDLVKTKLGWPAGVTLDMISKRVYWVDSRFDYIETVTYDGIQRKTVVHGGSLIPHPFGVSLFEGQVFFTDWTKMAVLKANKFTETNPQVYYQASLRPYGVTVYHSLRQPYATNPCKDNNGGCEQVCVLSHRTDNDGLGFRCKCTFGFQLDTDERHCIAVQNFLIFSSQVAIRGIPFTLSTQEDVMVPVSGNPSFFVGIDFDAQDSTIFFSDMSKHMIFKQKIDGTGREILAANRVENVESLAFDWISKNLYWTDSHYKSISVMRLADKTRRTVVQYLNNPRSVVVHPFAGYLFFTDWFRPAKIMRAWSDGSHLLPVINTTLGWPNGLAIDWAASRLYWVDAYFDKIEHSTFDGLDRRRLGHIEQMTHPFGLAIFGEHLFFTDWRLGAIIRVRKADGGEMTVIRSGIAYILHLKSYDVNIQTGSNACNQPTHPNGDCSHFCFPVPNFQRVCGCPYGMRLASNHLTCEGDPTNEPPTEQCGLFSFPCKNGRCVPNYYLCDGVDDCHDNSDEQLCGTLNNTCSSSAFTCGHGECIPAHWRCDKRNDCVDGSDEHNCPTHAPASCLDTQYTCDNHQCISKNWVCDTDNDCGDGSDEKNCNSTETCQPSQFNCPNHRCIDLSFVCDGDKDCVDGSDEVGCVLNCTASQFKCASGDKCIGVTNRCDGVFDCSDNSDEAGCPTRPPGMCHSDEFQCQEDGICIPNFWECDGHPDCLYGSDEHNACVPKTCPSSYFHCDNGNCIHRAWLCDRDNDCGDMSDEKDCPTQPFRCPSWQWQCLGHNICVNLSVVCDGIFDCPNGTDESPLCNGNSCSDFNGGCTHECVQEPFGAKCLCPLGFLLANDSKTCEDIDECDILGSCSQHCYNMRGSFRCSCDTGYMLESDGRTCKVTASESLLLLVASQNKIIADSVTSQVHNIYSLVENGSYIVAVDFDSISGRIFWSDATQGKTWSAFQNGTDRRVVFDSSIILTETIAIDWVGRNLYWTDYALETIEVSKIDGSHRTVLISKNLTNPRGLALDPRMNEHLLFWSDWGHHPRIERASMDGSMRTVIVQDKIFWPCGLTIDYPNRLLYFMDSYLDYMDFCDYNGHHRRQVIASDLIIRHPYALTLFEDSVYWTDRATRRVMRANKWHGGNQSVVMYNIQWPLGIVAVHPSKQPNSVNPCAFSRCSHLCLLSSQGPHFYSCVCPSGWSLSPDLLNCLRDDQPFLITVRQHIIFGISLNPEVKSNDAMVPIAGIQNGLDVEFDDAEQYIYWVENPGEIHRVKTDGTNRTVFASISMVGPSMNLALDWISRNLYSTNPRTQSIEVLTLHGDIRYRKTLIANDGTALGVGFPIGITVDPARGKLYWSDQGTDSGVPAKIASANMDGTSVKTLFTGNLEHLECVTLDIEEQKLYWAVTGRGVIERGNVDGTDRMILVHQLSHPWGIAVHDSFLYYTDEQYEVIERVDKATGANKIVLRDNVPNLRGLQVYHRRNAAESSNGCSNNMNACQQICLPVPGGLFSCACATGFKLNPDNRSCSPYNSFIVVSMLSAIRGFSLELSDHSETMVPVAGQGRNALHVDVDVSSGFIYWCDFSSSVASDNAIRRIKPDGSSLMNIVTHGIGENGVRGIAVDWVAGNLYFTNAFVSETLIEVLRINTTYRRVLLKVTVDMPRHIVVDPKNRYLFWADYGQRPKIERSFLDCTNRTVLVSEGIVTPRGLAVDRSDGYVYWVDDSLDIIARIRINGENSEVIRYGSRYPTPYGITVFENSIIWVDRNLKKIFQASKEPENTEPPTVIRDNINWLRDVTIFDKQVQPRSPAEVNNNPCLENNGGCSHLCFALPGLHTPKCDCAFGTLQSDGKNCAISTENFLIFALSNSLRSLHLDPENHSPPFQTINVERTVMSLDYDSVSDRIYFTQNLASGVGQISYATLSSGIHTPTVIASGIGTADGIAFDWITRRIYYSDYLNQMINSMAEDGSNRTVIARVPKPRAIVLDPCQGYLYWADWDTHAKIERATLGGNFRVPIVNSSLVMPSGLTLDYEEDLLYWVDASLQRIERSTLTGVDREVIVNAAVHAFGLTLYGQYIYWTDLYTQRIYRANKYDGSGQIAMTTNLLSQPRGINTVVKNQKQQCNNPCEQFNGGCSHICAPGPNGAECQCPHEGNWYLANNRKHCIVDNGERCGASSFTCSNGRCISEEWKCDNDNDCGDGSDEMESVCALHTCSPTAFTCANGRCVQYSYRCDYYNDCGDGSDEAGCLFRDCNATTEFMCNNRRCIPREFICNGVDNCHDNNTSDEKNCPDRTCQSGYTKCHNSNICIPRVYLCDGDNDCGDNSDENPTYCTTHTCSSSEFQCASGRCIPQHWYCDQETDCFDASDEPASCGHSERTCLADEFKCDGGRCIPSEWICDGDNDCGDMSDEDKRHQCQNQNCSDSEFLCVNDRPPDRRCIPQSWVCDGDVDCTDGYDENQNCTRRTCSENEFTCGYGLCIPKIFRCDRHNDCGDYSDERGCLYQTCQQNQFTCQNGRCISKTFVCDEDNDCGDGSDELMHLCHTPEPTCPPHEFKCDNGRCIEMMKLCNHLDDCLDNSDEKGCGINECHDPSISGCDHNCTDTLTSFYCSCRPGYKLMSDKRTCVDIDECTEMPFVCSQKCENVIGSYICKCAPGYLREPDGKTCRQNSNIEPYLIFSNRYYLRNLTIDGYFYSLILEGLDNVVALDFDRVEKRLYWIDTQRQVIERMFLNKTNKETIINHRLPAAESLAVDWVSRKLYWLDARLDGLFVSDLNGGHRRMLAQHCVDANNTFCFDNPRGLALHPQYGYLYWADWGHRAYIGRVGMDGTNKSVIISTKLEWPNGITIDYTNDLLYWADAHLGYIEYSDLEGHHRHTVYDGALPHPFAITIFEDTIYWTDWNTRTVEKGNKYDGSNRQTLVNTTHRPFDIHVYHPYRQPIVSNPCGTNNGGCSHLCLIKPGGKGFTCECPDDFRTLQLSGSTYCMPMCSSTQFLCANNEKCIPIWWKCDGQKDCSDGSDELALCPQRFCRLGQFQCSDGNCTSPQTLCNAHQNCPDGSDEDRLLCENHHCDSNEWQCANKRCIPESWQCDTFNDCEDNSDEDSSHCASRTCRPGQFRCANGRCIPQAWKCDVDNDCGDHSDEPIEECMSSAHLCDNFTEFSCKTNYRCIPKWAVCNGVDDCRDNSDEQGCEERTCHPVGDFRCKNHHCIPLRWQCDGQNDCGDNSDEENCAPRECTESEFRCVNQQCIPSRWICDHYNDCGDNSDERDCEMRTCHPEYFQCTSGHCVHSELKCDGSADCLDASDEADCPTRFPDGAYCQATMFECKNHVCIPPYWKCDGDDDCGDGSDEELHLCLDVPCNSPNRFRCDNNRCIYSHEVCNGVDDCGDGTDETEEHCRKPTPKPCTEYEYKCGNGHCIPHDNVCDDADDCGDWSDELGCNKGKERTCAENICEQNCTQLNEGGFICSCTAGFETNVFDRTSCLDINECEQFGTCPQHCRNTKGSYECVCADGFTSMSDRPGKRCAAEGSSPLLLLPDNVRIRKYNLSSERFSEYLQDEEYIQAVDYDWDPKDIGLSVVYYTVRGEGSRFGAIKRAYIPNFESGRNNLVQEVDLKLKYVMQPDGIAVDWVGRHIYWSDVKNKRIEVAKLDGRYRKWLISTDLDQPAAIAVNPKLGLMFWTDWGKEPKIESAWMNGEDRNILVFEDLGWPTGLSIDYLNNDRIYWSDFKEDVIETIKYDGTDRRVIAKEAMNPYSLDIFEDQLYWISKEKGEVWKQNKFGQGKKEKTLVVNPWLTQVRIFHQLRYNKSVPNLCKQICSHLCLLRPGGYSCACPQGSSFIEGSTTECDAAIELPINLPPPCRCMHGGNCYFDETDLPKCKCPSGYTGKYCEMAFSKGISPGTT

Substance | Kd [1] [µM] | Kd (24p3R (Homo sapiens)) [nM] | Kd (megalin (Homo sapiens)) [µM] | Kd [2] [µM]
Lipocalin-2 (from UniProt P80188) | 20 | 0.092 | 0.06 | 
Lipocalin-2 (apo) (from UniProt P80188) |  |  |  | 8.5
